# Source: PMC5029901
# Target: GST-Gag (HIV-1 Gag fused to GST, from pGEX-6P-3/Gag) (HIV-1)
# Experiment: SPR
substance,measurement,value
FLAG-TSG101 (Tumor Susceptibility Gene 101) (from UniProt Q99816 1-390) (natural protein),Kd,0.0552 µM
same,koff,0.0223 s⁻¹
same,kon,924000 M⁻¹ s⁻¹
